For experiment [1], the target named is VEGF-A165 (human) (UniProt P15692). In words: cell-based or functional assay.
The target is the same in experiment [2]. Nature of the experiment: SPR, Biacore T200. For orientation: Surface plasmon resonance follows binding to a sensor surface in real time, without labels.
The next experiment deals with VEGF-A121 (UniProt P15692). In words: SPR, Biacore T200.
Another experiment concerns the target T1, PlGF (UniProt P49763).
T1 sequence (looked up): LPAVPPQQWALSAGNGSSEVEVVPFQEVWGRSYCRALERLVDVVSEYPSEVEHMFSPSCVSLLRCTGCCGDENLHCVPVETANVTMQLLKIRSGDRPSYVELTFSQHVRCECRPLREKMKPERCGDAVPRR
In words: SPR, Biacore T200.

For experiment [3], the target named is C4b (human) (UniProt P0C0L4). In words: SPR, Biacore T200.
Sequence of C4b (human) (P0C0L4 20-1744): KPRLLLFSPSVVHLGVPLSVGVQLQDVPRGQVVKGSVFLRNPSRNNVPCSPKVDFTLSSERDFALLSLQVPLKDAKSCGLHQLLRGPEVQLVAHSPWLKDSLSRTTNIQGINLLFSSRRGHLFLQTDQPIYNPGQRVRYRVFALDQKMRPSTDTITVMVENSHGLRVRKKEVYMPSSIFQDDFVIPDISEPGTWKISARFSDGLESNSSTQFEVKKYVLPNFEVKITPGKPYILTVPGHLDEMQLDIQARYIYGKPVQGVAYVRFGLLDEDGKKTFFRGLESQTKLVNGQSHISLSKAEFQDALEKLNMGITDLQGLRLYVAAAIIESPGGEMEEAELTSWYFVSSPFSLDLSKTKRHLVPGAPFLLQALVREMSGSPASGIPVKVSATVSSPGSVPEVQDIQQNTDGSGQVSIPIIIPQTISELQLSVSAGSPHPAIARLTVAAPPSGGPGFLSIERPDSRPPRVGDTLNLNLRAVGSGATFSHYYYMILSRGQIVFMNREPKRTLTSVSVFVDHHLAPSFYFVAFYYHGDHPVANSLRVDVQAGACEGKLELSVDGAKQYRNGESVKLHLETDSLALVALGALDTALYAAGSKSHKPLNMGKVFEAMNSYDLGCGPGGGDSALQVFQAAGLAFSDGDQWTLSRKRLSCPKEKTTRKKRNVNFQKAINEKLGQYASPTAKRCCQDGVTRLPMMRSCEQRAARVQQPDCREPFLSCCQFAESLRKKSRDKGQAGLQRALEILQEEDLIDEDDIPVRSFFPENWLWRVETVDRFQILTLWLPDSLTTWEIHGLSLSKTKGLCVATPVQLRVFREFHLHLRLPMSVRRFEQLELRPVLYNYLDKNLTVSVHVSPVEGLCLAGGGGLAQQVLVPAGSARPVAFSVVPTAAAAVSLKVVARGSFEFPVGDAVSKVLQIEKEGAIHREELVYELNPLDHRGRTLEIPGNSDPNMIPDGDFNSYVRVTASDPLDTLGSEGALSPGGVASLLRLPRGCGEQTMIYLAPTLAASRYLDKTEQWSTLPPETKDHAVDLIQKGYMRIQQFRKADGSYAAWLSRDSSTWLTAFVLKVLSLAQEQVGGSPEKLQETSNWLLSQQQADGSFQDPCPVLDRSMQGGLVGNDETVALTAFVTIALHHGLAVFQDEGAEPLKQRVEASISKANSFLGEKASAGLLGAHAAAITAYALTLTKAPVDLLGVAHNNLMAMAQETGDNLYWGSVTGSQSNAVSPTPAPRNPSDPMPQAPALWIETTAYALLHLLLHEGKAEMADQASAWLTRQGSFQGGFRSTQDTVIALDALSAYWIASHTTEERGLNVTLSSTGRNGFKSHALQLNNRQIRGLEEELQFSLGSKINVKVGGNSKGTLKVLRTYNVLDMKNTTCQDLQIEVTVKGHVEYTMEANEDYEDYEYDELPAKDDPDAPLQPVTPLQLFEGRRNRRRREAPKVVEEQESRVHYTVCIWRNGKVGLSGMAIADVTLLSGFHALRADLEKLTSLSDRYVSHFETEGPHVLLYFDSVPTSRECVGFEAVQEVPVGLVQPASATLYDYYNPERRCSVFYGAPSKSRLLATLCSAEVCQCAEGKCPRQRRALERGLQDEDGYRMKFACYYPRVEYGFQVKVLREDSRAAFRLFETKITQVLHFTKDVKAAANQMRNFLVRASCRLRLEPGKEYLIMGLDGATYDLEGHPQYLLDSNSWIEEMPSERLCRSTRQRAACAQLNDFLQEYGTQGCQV
Experiment [4] deals with C3b (UniProt P01024). Nature of the experiment: SPR, Biacore T200.
Experiment [5] addresses C4b (human) (UniProt P0C0L4). In words: cell-based or functional assay.
In experiment [6] the target is C3b (UniProt P01024). In words: cell-based or functional assay.

Sequence of Aflibercept injection (Fc fusion) (chain): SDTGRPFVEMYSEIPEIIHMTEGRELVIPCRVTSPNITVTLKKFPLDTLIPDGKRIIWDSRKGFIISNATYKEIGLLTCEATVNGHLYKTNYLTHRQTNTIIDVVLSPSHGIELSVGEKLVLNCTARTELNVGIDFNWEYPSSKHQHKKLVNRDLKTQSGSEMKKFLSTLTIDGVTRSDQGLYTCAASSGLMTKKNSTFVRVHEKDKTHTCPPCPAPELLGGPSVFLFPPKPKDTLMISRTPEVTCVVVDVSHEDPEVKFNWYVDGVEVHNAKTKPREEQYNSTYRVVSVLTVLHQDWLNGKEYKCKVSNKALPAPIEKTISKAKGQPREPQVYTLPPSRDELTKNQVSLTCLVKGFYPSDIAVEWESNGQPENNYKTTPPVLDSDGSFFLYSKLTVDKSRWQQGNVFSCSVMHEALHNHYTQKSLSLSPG
Sequence of VEGF-A121 (P15692 other isoform, or with tags, fused parts or gaps limits assumed): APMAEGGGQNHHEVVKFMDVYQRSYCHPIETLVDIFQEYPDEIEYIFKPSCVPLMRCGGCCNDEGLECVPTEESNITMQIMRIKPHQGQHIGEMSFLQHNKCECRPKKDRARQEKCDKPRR
Sequence of VEGF-A165 (human) (P15692 other isoform, or with tags, fused parts or gaps limits assumed): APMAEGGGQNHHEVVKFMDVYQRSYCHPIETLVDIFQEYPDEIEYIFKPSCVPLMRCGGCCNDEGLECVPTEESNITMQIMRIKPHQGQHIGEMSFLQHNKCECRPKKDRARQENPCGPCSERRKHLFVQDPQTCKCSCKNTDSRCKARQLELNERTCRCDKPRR

In the experiment with VEGF-A165 (human) [1], Aflibercept injection (Fc fusion) yielded an EC50 (ng/mL), inhibition of VEGF-A-induced HUVEC proliferation (CCK-8) of 41 ng/mL and an EC50, inhibition of VEGF-A-induced HUVEC proliferation (CCK-8) of 0.357 nM. In the experiment with VEGF-A165 (human) [2], the equilibrium dissociation constant (Kd) (commonly the concentration at which binding is half-saturated) turned out to be 0.00387 nM; the koff (as a rule, the rate constant with which the complex falls apart) came to 7.93e-05 s⁻¹; the association rate constant (kon) (usually the rate constant with which the complex forms) was found to be 2.05e+07 M⁻¹ s⁻¹. In the experiment with VEGF-A121, the dissociation constant (Kd) is 0.00778 nM, the dissociation rate constant (koff) turned out to be 4.25e-05 s⁻¹ and the on-rate constant (kon) came to 5.46e+06 M⁻¹ s⁻¹. Also, in the experiment with PlGF, the Kd came to 1.16 nM, the off-rate constant (koff) was found to be 0.00384 s⁻¹ and the kon turned out to be 3.32e+06 M⁻¹ s⁻¹.

In the experiment with C4b (human) [3], “Human complement receptor type 1 (from UniProt P17927 42-1971)” registered a Kd of 17.1 nM, a koff of 0.000805 s⁻¹ and an association rate constant (kon) of 47000 M⁻¹ s⁻¹. For the same substance, in the experiment with C3b [4], the Kd turned out to be 0.35 nM, the koff stood at 0.0011 s⁻¹ and the association rate constant (kon) was determined as 3.16e+06 M⁻¹ s⁻¹.

As for IBI302 (Fc fusion), in the experiment with C4b (human) [5], the EC50, inhibition of hemolysis of rabbit red blood cells induced by human serum complement (alternative pathway) was 14.6 nM and the EC50, inhibition of hemolysis of sensitized sheep red blood cells induced by human serum complement (classical pathway) was 2.51 nM. Besides, in the experiment with C3b [6], the EC50, inhibition of hemolysis of rabbit red blood cells induced by human serum complement (alternative pathway) came out at 14.6 nM and the EC50, inhibition of hemolysis of sensitized sheep red blood cells induced by human serum complement (classical pathway) was 2.51 nM. Besides, in the experiment with C4b (human) [3], the dissociation constant Kd came out at 7.75 nM, the off-rate constant (koff) amounted to 0.00335 s⁻¹ and the kon is 432000 M⁻¹ s⁻¹. In the experiment with C3b [4], the Kd was found to be 9.96 nM, the koff came to 0.00287 s⁻¹ and the on-rate (kon) stood at 288000 M⁻¹ s⁻¹.

The values are drawn from patent publication US20230056821A1.
